Results reported in PMC2686732, “Both Ca^2+ and Zn^2+ are essential for S100A12 protein oligomerization and function” (BMC Biochemistry, 2009).

What was measured:
[1] = biological target: the molecule itself; test: native gel or EMSA; native PAGE, 7.5% gel, Tris-glycine pH 8.8, 14 ug S100A12 in 2 mM Ca
[2] = biological target: the molecule itself; test: native gel or EMSA; native PAGE, 7.5% gel, Tris-glycine pH 8.8, 14 ug S100A12 with 5 uM Zn
[3] = biological target: T1, Human RAGE-Fc fusion protein (human, UniProt Q15109 23-342); test: SPR; S100A12 immobilised (2,933 RU) by amine coupling on CM5; RAGE/Fc (125 nM) injected 3 min at 30 ul/min; HBS-P buffer with 1 mM Ca2+ and 20 uM Zn2+; 1:1 Langmuir model; conditions: both partners purified
T1 construct: RAGE (Receptor for Advanced Glycation End products), human; also called recombinant human RAGE/Fc; source: bought: R&D Systems

[4] = biological target: the molecule itself; test: native gel or EMSA; native PAGE, S100A12 with zinc and calcium plus TPEN (zinc chelator) or EDTA (divalent ion chelator)
[5] = biological target: the molecule itself; test: native gel or EMSA; native PAGE, S100A12 in the presence of both Ca and Zn (also with the copper I chelator BCS)
[6] = biological target: the molecule itself; test: SEC; Superdex 200, 50 mM Tris-HCl pH 7.5, 200 mM NaCl, 20 C, 1 mg/ml injected; no ions added

T1 sequence (Q15109 23-342): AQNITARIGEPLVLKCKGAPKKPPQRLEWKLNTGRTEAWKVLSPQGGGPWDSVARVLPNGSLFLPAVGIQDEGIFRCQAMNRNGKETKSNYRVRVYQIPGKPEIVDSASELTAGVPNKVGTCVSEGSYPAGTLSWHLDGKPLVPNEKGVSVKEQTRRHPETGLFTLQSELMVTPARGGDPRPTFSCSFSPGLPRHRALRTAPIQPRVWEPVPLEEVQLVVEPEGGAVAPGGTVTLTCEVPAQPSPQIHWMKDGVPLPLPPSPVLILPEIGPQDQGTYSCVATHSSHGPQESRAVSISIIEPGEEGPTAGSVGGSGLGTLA

B1: Recombinant full-length human S100A12 (natural protein, UniProt P80511 1-92, looked up)
chain: MTKLEEHLEGIVNIFHQYSVRKGHFDTLSKGELKQLLTKELANTIKNIKDKAVIDEIFQGLDANQDEQVDFQEFISLVAIALKAAHYHTHKE
notes: S100A12, human, full length; expressed from a modified pQE60 vector with a stop codon inserted so that the protein has no histidine tag; Oligomeric state (dimer, tetramer, hexamer) depends on Ca2+ and Zn2+ in the sample; [U-15N] labelled for the NMR experiments; also called apo-S100A12; Ca2+-S100A12; source: E. coli, purified (Phenyl-Sepharose, ResQ ion exchange)
**Q.** What does the source list for B1?
**A.** stoichiometry N [1]: ~6; stoichiometry N [2]: ~4; Kd [3]: 4.6 nM; koff [3]: 0.00032 s⁻¹; kon [3]: 68000 M⁻¹ s⁻¹; stoichiometry N [4]: 2; stoichiometry N [5]: 6; stoichiometry N [6]: 4
